According to US20180346555A1 (Regeneron, published 2018):

How the values were obtained:
[1] = biological target: T1, natural Bet v 1 (Indoor Biotechnologies, # NA-BV1-1) (Betula verrucosa (Betula pendula), UniProt P15494 2-160, biotin labeled in the IgE blocking ELISA (Tables 12-14); unlabeled in the SPR of Table 18); experiment: blocking ELISA, captured IgE of donor 22627-MN, 1 ug/mL each antibody
T1 construct: Bought natural allergen purified from birch pollen; also called nBet v 1; Biotinylated Bet v 1
T1 chain: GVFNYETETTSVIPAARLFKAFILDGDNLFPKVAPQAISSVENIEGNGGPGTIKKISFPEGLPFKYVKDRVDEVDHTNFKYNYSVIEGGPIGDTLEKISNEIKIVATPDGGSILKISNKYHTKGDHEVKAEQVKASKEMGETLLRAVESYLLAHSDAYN

[2] = biological target: T1, natural Bet v 1 (Indoor …); experiment: blocking ELISA, captured IgE of donor 23035-BL, 1 ug/mL each antibody
[3] = biological target: T1, natural Bet v 1 (Indoor …); experiment: blocking ELISA, captured IgE of donor 23658-MD, 1 ug/mL each antibody
[4] = biological target: T1, natural Bet v 1 (Indoor …); experiment: blocking ELISA, captured IgE of donor 23939-MH, 1 ug/mL each antibody
[5] = biological target: T1, natural Bet v 1 (Indoor …); experiment: blocking ELISA, captured IgE of donor 25299-RJ, 1 ug/mL each antibody
[6] = biological target: T1, natural Bet v 1 (Indoor …); experiment: blocking ELISA, captured IgE of donor 25340-RR, 1 ug/mL each antibody
[7] = biological target: T1, natural Bet v 1 (Indoor …); experiment: blocking ELISA, captured IgE of donor 25414-CW, 1 ug/mL each antibody
[8] = biological target: T1, natural Bet v 1 (Indoor …); experiment: blocking ELISA, captured IgE of donor 25609-MS, 1 ug/mL each antibody
[9] = biological target: T1, natural Bet v 1 (Indoor …); experiment: blocking ELISA, captured IgE of donor 26532-CC, 1 ug/mL each antibody
[10] = biological target: T1, natural Bet v 1 (Indoor …); experiment: blocking ELISA, captured IgE of donor 29718-MW, 1 ug/mL each antibody
[11] = biological target: T1, natural Bet v 1 (Indoor …); experiment: dose-response blocking ELISA, captured IgE of donor 23939-MH, at 1 ug/mL each antibody
[12] = biological target: T1, natural Bet v 1 (Indoor …); experiment: dose-response blocking ELISA, captured IgE of donor 25340-RR, at 1 ug/mL each antibody
[13] = biological target: T1, natural Bet v 1 (Indoor …); experiment: dose-response blocking ELISA, captured IgE of donor 25609-MS, at 1 ug/mL each antibody

Percent Blocking [1]: 12%
Percent Blocking [2]: -46%
Percent Blocking [3]: 27%
Percent Blocking [4]: 16%
Percent Blocking [5]: 9%
Percent Blocking [6]: 15%
Percent Blocking [7]: -4%
Percent Blocking [8]: 16%
Percent Blocking [9]: 4%
Percent Blocking [10]: 13%
Percent Blocking [11]: 19.6%
Percent Blocking [12]: 11.1%
Percent Blocking [13]: 21.6%
B1: H4H16987P (antibody, human IgG4 S228P, kappa, V domains shown)
VH: EVQLVESGGGLVQPGGSLRLSCAASGFTVSSNSMSWVRQAPGEGLEWVSVIFSGGITYYSDSVKGRFTISRHNSKNTLYLQMNSLRTEDTAVYYCARHSNWNFDAFDIWGQGTMVTVSS
VL: DIQMTQSPSSLSASVGDRVTITCRASQSFDTYLNWYQQKPGKAPNLLIYATSSLQSGVPSRFSGSGSGTDFTLTISSLQPEDFGTYYCQQSYSIPYTFGQGTKLEIKR
notes: human IgG4; also called MAB4
